From publication PMC3688787
Square brackets hold non-standard residues; d marks the D form. Ends that are not written are not given here. Hyp = O=C(O)[C@@H]1C[C@@H](O)CN1

Legend:
Assay in all cases: ELISA; ELISA-based binding assay: pVHL variant (10 µg/ml, 100 µl) coated on the plate overnight at 4°C, blocked with 5% BSA; TAMRA-labelled Hyp402-ODD peptide added at increasing concentrations, 1 h at 25°C; high salt buffer (10 mM Tris-HCl pH 8.5, 500 mM NaCl) without Arginine; fluorescence at 580 nm
[1] = target: pVHL N78S mutant, 19 kDa form (human)
[2] = target: pVHL F119L mutant, 19 kDa form (human)
[3] = target: pVHL F136L mutant, 19 kDa form (human)

- fold lower affinity than the WT [1]: 2 fold
- fold lower affinity than the WT [2]: 2.5 fold
- fold lower affinity than the WT [3]: 5 fold
B1: Hyp402-ODD target peptide of HIF-1α (peptide)
peptide: LDLEALA[Hyp]YIPADDDFQLRS
modifications: also: TAMRA (rhodamine) label, end not given here
